From patent US20260266833A1
Each block holds one substance with its values, some of them ahead of it.

Legend:
H3K9me3 peptide = test: fluorescence polarization, FITC-peptide 0.5 nM
H3K4me3 (mouse) [1] = test: ChIP-seq of the EGFP control in mESCs, correlation with antibody ChIP-seq of the mark, counts at 1-kb intervals
[2] = target: H3K27me3-marked histone H3 in chromatin of mouse embryonic stem cells (mouse); test: as above
[3] = target: H3K9me3-marked histone H3 in chromatin of mouse embryonic stem cells (mouse); test: as above
H3K4me3 (mouse) [4] = test: ChIP-seq of the EGFP control in mESCs, correlation with antibody ChIP-seq of the mark, 1-kb bins on chromosome 19
[5] = target: H3K27me3-marked histone H3 in chromatin of mouse embryonic stem cells (mouse); test: as above
[6] = target: H3K9me3-marked histone H3 in chromatin of mouse embryonic stem cells (mouse); test: as above

Chain of Cbx1.wt chromodomain (tags removed), P83916 17-79 (P83916 17-79 limits assumed): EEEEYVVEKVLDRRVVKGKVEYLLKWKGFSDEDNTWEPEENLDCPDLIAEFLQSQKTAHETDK
Chain of Cbx5.wt chromodomain (tags removed), P45973 17-78 (P45973 17-78 limits assumed): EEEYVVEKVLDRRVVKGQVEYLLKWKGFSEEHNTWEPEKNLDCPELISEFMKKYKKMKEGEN
Chain of Cbx3.wt chromodomain (tags removed), Q13185 23-81 (Q13185 23-81 limits assumed): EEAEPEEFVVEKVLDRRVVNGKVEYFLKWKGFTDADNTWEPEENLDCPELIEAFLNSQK

Kd (H3K9me3 peptide): 2 µM
Substance: Cbx3.wt chromodomain (tags removed), Q13185 23-81

Pearson correlation (H3K4me3 (mouse) [1]): 0.14 | Pearson correlation [2]: 0.2 | Pearson correlation [3]: 0.32 | Pearson correlation (H3K4me3 (mouse) [4]): 0.2 | Pearson correlation [5]: -0.1 | Pearson correlation [6]: -0.3
Substance: EGFP

Kd (H3K9me3 peptide): 0.5 µM
Substance: Cbx1.wt chromodomain (tags removed), P83916 17-79

Kd (H3K9me3 peptide): 5 µM
Substance: Cbx5.wt chromodomain (tags removed), P45973 17-78
